± gives the standard deviation of the averaged measurements.
System: ATP
Experiment: switch fluorescence ratio, 500 uM ATP over buffer (Cy3 cluster intensity, sum of 5 cycles each) (fold (ratio)); higher = stronger signal-on switching upon ATP binding; sequences stand for … in TCGTCGGCAGCGTCAGATGTGTATAAGAGACAGTTTTTTTTTTTTTTTTTTTTTTTTT…TC
Settings: aptamer strand: ATP DNA aptamer (quencher-CACCTGGGGGAGTATTGCGGAGGAAGG + anchor), 100 nM annealed; ATP concentration: 500 uM
Summary of the method: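 Clusters with intensities outside 100-1000 RFU were excluded. The remaining Cy3-labelled switching-strand clusters on a modified Illumina MiSeq flow-cell had been annealed to 100 nM quencher-labelled ATP aptamer and imaged in selection buffer, then after 15 min with 500 uM ATP at 22 °C, for five cycles separated by NaOH stripping and re-annealing. The fluorescence ratio, averaged per switch-domain sequence, is each cluster's summed target-cycle Cy3 intensity over its summed buffer-cycle Cy3 intensity.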
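Note: ATP exposure 15 min at 22 °C before imaging.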

CCAGATTGGG
switch fluorescence ratio: 1.004 ± 0.0052

GATTGGGTAG
switch fluorescence ratio: 0.999 ± 0.02

ATAGGGGAAG
switch fluorescence ratio: 1.01 ± 0.033

TACAAAGCAG
switch fluorescence ratio: 1.11 ± 0.037

GGAAGAGGAA
switch fluorescence ratio: 0.988 ± 0.025

AACTTATCGG
switch fluorescence ratio: 1.01 ± 0.036

GGAGATGTCA
switch fluorescence ratio: 1.013 ± 0.0081

TTATGGGGTG
switch fluorescence ratio: 1.01 ± 0.027

CTTAAGGGAA
switch fluorescence ratio: 0.9915 ± 0.0065

TCTTTTTTTC
switch fluorescence ratio: 1.02 ± 0.034

TGTAAAATGT
switch fluorescence ratio: 0.998 ± 0.029

GGTTCTAGTG
switch fluorescence ratio: 0.968 ± 0.025

TTGACCGACT
switch fluorescence ratio: 0.973 ± 0.043

TAGTGGTTTT
switch fluorescence ratio: 0.975 ± 0.02

TCGTATTGGG
switch fluorescence ratio: 1 ± 0.056

GGGGAAAGGG
switch fluorescence ratio: 1 ± 0.034

ATGGGTTATT
switch fluorescence ratio: 0.98 ± 0.045

GCTGACTTGT
switch fluorescence ratio: 0.977 ± 0.016

ATTGCTGGGT
switch fluorescence ratio: 0.985 ± 0.033

TTAAGAACAA
switch fluorescence ratio: 1.02 ± 0.03

CTGGGGGGAT
switch fluorescence ratio: 0.987 ± 0.021

TCGGAGGA
switch fluorescence ratio: 1.03 ± 0.048

AAGAGTTCTG
switch fluorescence ratio: 1 ± 0.011

ACCAGGGGGA
switch fluorescence ratio: 1.01 ± 0.023

TTTGTTCAT
switch fluorescence ratio: 0.998 ± 0.028

GGGACGAGGG
switch fluorescence ratio: 1.03 ± 0.035

AATGTGCCCA
switch fluorescence ratio: 0.9775 ± 0.007

TTTATTAACT
switch fluorescence ratio: 1.06 ± 0.072

GAAGGGGGGG
switch fluorescence ratio: 0.999 ± 0.042

GGGTATGTTT
switch fluorescence ratio: 0.981 ± 0.03

AAAGTGTGC
switch fluorescence ratio: 1.07 ± 0.03

GGTACACACA
switch fluorescence ratio: 1.26 ± 0.061

ATCGAAAGTT
switch fluorescence ratio: 0.99 ± 0.013

TCTAGGTTTT
switch fluorescence ratio: 1.005 ± 0.0047

CTGTATATCT
switch fluorescence ratio: 1.02 ± 0.022

TTATAACCTG
switch fluorescence ratio: 1.02 ± 0.037

TTGACTGTAG
switch fluorescence ratio: 0.982 ± 0.013

AAGTATCGTT
switch fluorescence ratio: 0.999 ± 0.011

AGCGTATGGG
switch fluorescence ratio: 0.983 ± 0.035

GGTTTCGTAG
switch fluorescence ratio: 1.01 ± 0.027

AAGTAGTGGT
switch fluorescence ratio: 0.979 ± 0.025

AATAAGGTTA
switch fluorescence ratio: 0.984 ± 0.022

GCTGGGATTA
switch fluorescence ratio: 0.984 ± 0.012

GAATTGGTTG
switch fluorescence ratio: 1 ± 0.04

CCGCGGGATT
switch fluorescence ratio: 1.28 ± 0.32

CCAGTTTCGG
switch fluorescence ratio: 0.983 ± 0.049

GGCGGATATG
switch fluorescence ratio: 1.009 ± 0.0097

CGGGGGGACT
switch fluorescence ratio: 0.998 ± 0.059

TCGTACTTAT
switch fluorescence ratio: 1.12 ± 0.18

AATTGAAGAT
switch fluorescence ratio: 1.03 ± 0.039

TTACCCTAGG
switch fluorescence ratio: 1.14 ± 0.024

AACTTTGGGG
switch fluorescence ratio: 1.01 ± 0.068

TTATGATGAT
switch fluorescence ratio: 1.006 ± 0.01

TTTTTTTCTA
switch fluorescence ratio: 0.99 ± 0.014

AATGTGCATA
switch fluorescence ratio: 0.988 ± 0.011

GGGAATATTT
switch fluorescence ratio: 0.995 ± 0.0097

TAATCGCATA
switch fluorescence ratio: 2.05 ± 1.2

TTGTTGCGGC
switch fluorescence ratio: 1.01 ± 0.042

TGGCATGTGT
switch fluorescence ratio: 0.986 ± 0.033

TAGTTCACGG
switch fluorescence ratio: 0.9991 ± 0.0073

ATCGTAAGGA
switch fluorescence ratio: 1.02 ± 0.046

CAAGTGGTTG
switch fluorescence ratio: 0.984 ± 0.025

AGGTTCGTAT
switch fluorescence ratio: 1.01 ± 0.03

AGAGGGCTGT
switch fluorescence ratio: 1.01 ± 0.15

TGAGTAGGGT
switch fluorescence ratio: 0.992 ± 0.011

CACGGAAGGA
switch fluorescence ratio: 1.065 ± 0.0079

GTTGCAAAAA
switch fluorescence ratio: 1.18 ± 0.32

GTTGAACCGG
switch fluorescence ratio: 0.988 ± 0.02

ATGGTTGTTG
switch fluorescence ratio: 0.9628 ± 0.0034

GTGGCAAAGT
switch fluorescence ratio: 0.9678 ± 9.7e-05

GGGTTGGTTG
switch fluorescence ratio: 0.9929 ± 0.0052

CCACTTAGGG
switch fluorescence ratio: 1.01 ± 0.021

CGTCTGATTG
switch fluorescence ratio: 1.01 ± 0.025

TGGGATAACT
switch fluorescence ratio: 0.99 ± 0.038

TATGGTAGGC
switch fluorescence ratio: 0.9857 ± 0.0042

AAACCGTT
switch fluorescence ratio: 1.04 ± 0.024

TTAAACGGGG
switch fluorescence ratio: 1.01 ± 0.035

ACTAGGGGGA
switch fluorescence ratio: 0.986 ± 0.023

GGTTCATACG
switch fluorescence ratio: 1.008 ± 0.0041

CCGAGAGGGT
switch fluorescence ratio: 1.06 ± 0.069

CAATATATCA
switch fluorescence ratio: 0.999 ± 0.022

GAGGTTTTGT
switch fluorescence ratio: 1 ± 0.023

CGAAAAGGGA
switch fluorescence ratio: 1.01 ± 0.029

TTTCAGTTGG
switch fluorescence ratio: 1.02 ± 0.015

CTTATTTGAT
switch fluorescence ratio: 0.975 ± 0.01

TTTGAGTAAT
switch fluorescence ratio: 1.027 ± 0.0017

AAGATTTTGA
switch fluorescence ratio: 0.936 ± 0.063

TTTCCATTGT
switch fluorescence ratio: 0.995 ± 0.048

TCGAGGGGTG
switch fluorescence ratio: 1.01 ± 0.039

ACCAATTCGC
switch fluorescence ratio: 1.06 ± 0.029

GATCTGGATA
switch fluorescence ratio: 0.9964 ± 0.0013

GGTCTGATTG
switch fluorescence ratio: 1.01 ± 0.065

TTAGAATGTA
switch fluorescence ratio: 0.99 ± 0.023

TTGTCGGGTT
switch fluorescence ratio: 1.01 ± 0.018

TTTTAGGGAT
switch fluorescence ratio: 1.03 ± 0.021

CAGGACATTA
switch fluorescence ratio: 0.994 ± 0.058

AAGATCATGG
switch fluorescence ratio: 0.98235 ± 0.00028

ATTCACTCTA
switch fluorescence ratio: 1.08 ± 0.026

GGTGGCATTT
switch fluorescence ratio: 1.08 ± 0.011

CGGGCTAGGG
switch fluorescence ratio: 0.9979 ± 0.0049

AAGGGGATGT
switch fluorescence ratio: 1.03 ± 0.032

GTGAGAAGAA
switch fluorescence ratio: 0.97 ± 0.01

AAATTCGGGT
switch fluorescence ratio: 0.981 ± 0.016

ATCAGGGCT
switch fluorescence ratio: 1.01 ± 0.028

TTGAACACGG
switch fluorescence ratio: 1.02 ± 0.034

ATAAGGTCGC
switch fluorescence ratio: 0.927 ± 0.021

AGGTGAAAGT
switch fluorescence ratio: 0.983 ± 0.029

TTTTATACG
switch fluorescence ratio: 1.36 ± 0.51

ATCACGGGGA
switch fluorescence ratio: 1.01 ± 0.032

CTGGGACTGA
switch fluorescence ratio: 1.02 ± 0.03

AGCCGCTCGT
switch fluorescence ratio: 0.99 ± 0.033

AGGAGCTCGG
switch fluorescence ratio: 0.994 ± 0.013

ATGAGGATGT
switch fluorescence ratio: 1 ± 0.019

TTGAATCGCG
switch fluorescence ratio: 1.0115 ± 0.00023

GATGATGTCC
switch fluorescence ratio: 0.96 ± 0.01

TTGGGAGGGT
switch fluorescence ratio: 0.999 ± 0.029

TTAAGTAGTT
switch fluorescence ratio: 1.02 ± 0.0099

GGGTACGCGA
switch fluorescence ratio: 1.222 ± 0.0097

CAATGGTAGT
switch fluorescence ratio: 0.9749 ± 0.0024

CGTCGGAAAG
switch fluorescence ratio: 1.01 ± 0.024

GCGGGGATGC
switch fluorescence ratio: 1.03 ± 0.075

TTACCATCGG
switch fluorescence ratio: 1.01 ± 0.024

AACGTTGGTT
switch fluorescence ratio: 1.01 ± 0.012

TGGGGTGTCT
switch fluorescence ratio: 0.993 ± 0.039

CGTGTCCGTG
switch fluorescence ratio: 1.01 ± 0.011

ATGTTGGTGT
switch fluorescence ratio: 0.991 ± 0.045

GGCTAAGGGT
switch fluorescence ratio: 0.995 ± 0.013

TCTATGGGAC
switch fluorescence ratio: 1.05 ± 0.013

GAAACGCGTA
switch fluorescence ratio: 0.994 ± 0.021

GGGTTAGAGT
switch fluorescence ratio: 0.993 ± 0.025

TTTGATTAT
switch fluorescence ratio: 0.996 ± 0.012

TTCGTGCATC
switch fluorescence ratio: 1.06 ± 0.026

ATTCATGAT
switch fluorescence ratio: 0.969 ± 0.044

CTAGTTCAGC
switch fluorescence ratio: 0.99 ± 0.028

TTCCATTTTG
switch fluorescence ratio: 0.992 ± 0.032

GATGTATGGA
switch fluorescence ratio: 0.997 ± 0.027

TATTAAAGAC
switch fluorescence ratio: 1.04 ± 0.1

TAGTTGGGAG
switch fluorescence ratio: 0.973 ± 0.012

TCAGAGGGGC
switch fluorescence ratio: 0.9913 ± 0.0095

TCGTTTGTTT
switch fluorescence ratio: 0.982 ± 0.04

AATCTGTGAA
switch fluorescence ratio: 1 ± 0.012

ACTGTTATGA
switch fluorescence ratio: 1.08 ± 0.058

TTGTTTGTAT
switch fluorescence ratio: 0.9647 ± 0.0073

GGGTTACTGG
switch fluorescence ratio: 1.002 ± 0.0021

GATAAAAGGA
switch fluorescence ratio: 1.002 ± 0.0063

AGTCAGATTC
switch fluorescence ratio: 1 ± 0.058

TTATCATAGT
switch fluorescence ratio: 1.005 ± 0.0064

TGTACGATGC
switch fluorescence ratio: 1.12 ± 0.014

CTGTTTAGTG
switch fluorescence ratio: 0.9822 ± 0.0061

TGGGGAATAT
switch fluorescence ratio: 1.18 ± 0.38

TCATGTAGGG
switch fluorescence ratio: 0.989 ± 0.015

AGCGTATTGG
switch fluorescence ratio: 0.998 ± 0.035

GTGGGTTCGC
switch fluorescence ratio: 1 ± 0.043

GTGTTCCGTG
switch fluorescence ratio: 1.01 ± 0.015

AGTGTTTTTT
switch fluorescence ratio: 1.01 ± 0.046

TTTAGTGAG
switch fluorescence ratio: 1.02 ± 0.011

TGAGGGGTGC
switch fluorescence ratio: 1.04 ± 0.029

From the supplement of paper PMC10126150
